This data set has as its system Saccharomyces cerevisiae. Nature of the data set: protein stability index of tFT-peptide fusion (C-terminal peptide) (PSI (0-1 scale)); higher = more stable (slower turnover). The settings on record: temperature: 30 C. The method, then: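 MPS profiling in S. cerevisiae of the yeast C-terminome library: the last 12 aa of each annotated ORF are fused to the C-terminus of a sfGFP-mCherry timer, after a GGGS linker. Cells are FACS-sorted into 8 mCherry/sfGFP bins and deep-sequenced. PSI runs from 0 (unstable) to 1 (stable); wild type and das1Δ backgrounds, two technical replicates each.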

The mark [1] stands for this setting: genetic background: das1 deletion.

± gives the standard deviation of the averaged measurements.

ELPNGKVIYSRK [ERJ5 C-terminal 12 aa]: the protein stability index runs as follows: under setting [1], 0.687 ± 0.067; (genetic background: wild type) 0.745 ± 0.025.

As to ELTSSDDCKDFI [YDR124W C-terminal 12 aa], the protein stability index stood at 0.7025 ± 0.0028 under setting [1] and 0.652 ± 0.034 (genetic background: wild type).

Regarding EMLGDKVNKKGI [SOK1 C-terminal 12 aa], the protein stability index amounted to 0.727 ± 0.0085 under setting [1] and 0.67 ± 0.012 (genetic background: wild type).

Sequence EMNNIIAASRRH [RPL36A C-terminal 12 aa] registered a protein stability index under setting [1] of 0.701 ± 0.0077 and a protein stability index (genetic background: wild type) of 0.713 ± 0.048.

Regarding ENAEKQRTLKKN [RIA1 C-terminal 12 aa], the protein stability index was 0.6927 ± 0.00075 under setting [1] and 0.71 ± 0.045 (genetic background: wild type).

As for ENAHMQSAESCN [YLR236C C-terminal 12 aa], the protein stability index reads like this: under setting [1], 0.682 ± 0.011; (genetic background: wild type) 0.717 ± 0.074.

As to ENASQLPHPSQK [ZIM17 C-terminal 12 aa], the protein stability index under setting [1] amounted to 0.698 ± 0.024 and the protein stability index (genetic background: wild type) stood at 0.691 ± 0.021.

Turning to ENDPWKVVRLAP [PDX3 C-terminal 12 aa], the protein stability index came out at 0.711 ± 0.019 under setting [1] and 0.715 ± 0.011 (genetic background: wild type).

For the sequence ENLVKQEAINGS [YAF9 C-terminal 12 aa], the protein stability index by setting is: under setting [1], 0.6823 ± 0.0044; (genetic background: wild type) 0.6834 ± 0.0042.

In turn, ENVDSPRKSNQL [SLM2 C-terminal 12 aa] came in with a protein stability index under setting [1] of 0.69 ± 0.018 and a protein stability index (genetic background: wild type) of 0.678 ± 0.014.

On to EPFGPKMSTVQV [YHB1 C-terminal 12 aa], for which the protein stability index reads like this: under setting [1], 0.6732 ± 0.0032; (genetic background: wild type) 0.663 ± 0.0085.

EQLEEEFVRQEH [OSW7 C-terminal 12 aa]: the protein stability index stood at 0.7319 ± 0.00083 under setting [1] and 0.7301 ± 0.0026 (genetic background: wild type).

As to EQLEQDDGRKGG [LSM12 C-terminal 12 aa], the protein stability index under setting [1] was 0.682 ± 0.024 and the protein stability index (genetic background: wild type) stood at 0.669 ± 0.023.

For the sequence EQNAALGQGLGR [TIM9 C-terminal 12 aa], the protein stability index amounted to 0.70792 ± 0.00034 under setting [1] and 0.692 ± 0.0086 (genetic background: wild type).

Consider EQNLEALAKSFF [BEM4 C-terminal 12 aa], for which the protein stability index runs as follows: under setting [1], 0.734 ± 0.023; (genetic background: wild type) 0.697 ± 0.029.

For the sequence EQSEQPEQHQDK [RPN10 C-terminal 12 aa], the protein stability index worked out at 0.697 ± 0.018 under setting [1] and 0.666 ± 0.01 (genetic background: wild type).

Take ERKPLDFLRTAK [MRPL39 C-terminal 12 aa]: the protein stability index reads like this: under setting [1], 0.6743 ± 0.0021; (genetic background: wild type) 0.659 ± 0.0088.

Regarding ESAKQRRDKQKN [ATG38 C-terminal 12 aa], the protein stability index is, setting by setting: under setting [1], 0.7096 ± 0.003; (genetic background: wild type) 0.686 ± 0.02.

Turning to ESLQKNIKIETK [MUM3 C-terminal 12 aa], the protein stability index amounted to 0.6981 ± 0.005 under setting [1] and 0.671 ± 0.051 (genetic background: wild type).

The sequence ESVSYLFTHAPV [PRS2 C-terminal 12 aa] came in with a protein stability index under setting [1] of 0.734 ± 0.0093 and a protein stability index (genetic background: wild type) of 0.711 ± 0.023.

For ESYRDDSIEAED [NCR1 C-terminal 12 aa], the protein stability index is 0.6933 ± 0.001 under setting [1] and 0.7157 ± 0.0012 (genetic background: wild type).

Regarding “ETIAEEMDSVHT [YAL064W-B C-terminal 12 aa]”, the protein stability index came out at 0.682 ± 0.012 under setting [1] and 0.662 ± 0.018 (genetic background: wild type).

Take ETNFWTAALEYE [THI20 C-terminal 12 aa]: the protein stability index runs as follows: under setting [1], 0.723 ± 0.011; (genetic background: wild type) 0.759 ± 0.034.

In the case of ETVGYEAYLENK [ADE2 C-terminal 12 aa], the protein stability index is 0.685 ± 0.014 under setting [1] and 0.661 ± 0.013 (genetic background: wild type).

Sequence EVDIDSLLAKLN [RLP7 C-terminal 12 aa] registered a protein stability index under setting [1] of 0.7114 ± 0.0065 and a protein stability index (genetic background: wild type) of 0.407 ± 0.023.

In the case of EVLEVAEKFKEE [DOT5 C-terminal 12 aa], the protein stability index by setting is: under setting [1], 0.696 ± 0.011; (genetic background: wild type) 0.683 ± 0.018.

In the case of EYHQEFLHKHVR [CWC15 C-terminal 12 aa], the protein stability index is 0.726 ± 0.035 under setting [1] and 0.662 ± 0.015 (genetic background: wild type).

On to EYPWEKPKTLKF [SAM1 C-terminal 12 aa], for which the protein stability index runs as follows: under setting [1], 0.7167 ± 0.00082; (genetic background: wild type) 0.6917 ± 0.0068.

As to FADTRPFDEIYR [ATP23 C-terminal 12 aa], the protein stability index is, setting by setting: under setting [1], 0.73 ± 0.00073; (genetic background: wild type) 0.727 ± 0.063.

On to FAFVVVKQEFIH [BYE1 C-terminal 12 aa], for which the protein stability index by setting is: under setting [1], 0.521 ± 0.015; (genetic background: wild type) 0.519 ± 0.0072.

Turning to FASGKPIKKVKN [DYS1 C-terminal 12 aa], the protein stability index was 0.698 ± 0.0083 under setting [1] and 0.706 ± 0.016 (genetic background: wild type).

Consider “FCKEKVYSKLLV [YNL103W-A C-terminal 12 aa]”, for which the protein stability index was 0.648 ± 0.015 under setting [1] and 0.559 ± 0.0084 (genetic background: wild type).

As to FDTLIVHHFSSE [KHA1 C-terminal 12 aa], the protein stability index worked out at 0.733 ± 0.01 under setting [1] and 0.682 ± 0.021 (genetic background: wild type).

Take FEVMKFVNGLKV [RFX1 C-terminal 12 aa]: the protein stability index stood at 0.5484 ± 0.0045 under setting [1] and 0.5872 ± 0.0047 (genetic background: wild type).

FEWEDDESDEIA [ATG7 C-terminal 12 aa]: the protein stability index turned out to be 0.7397 ± 0.004 under setting [1] and 0.706 ± 0.035 (genetic background: wild type).

On to FFRLGWSTWLHY [YOR029W C-terminal 12 aa], for which the protein stability index by setting is: under setting [1], 0.502 ± 0.01; (genetic background: wild type) 0.351 ± 0.0046.

Take “FFRQWWDIIQSK [YMR316C-A C-terminal 12 aa]”: the protein stability index stood at 0.7 ± 0.025 under setting [1] and 0.671 ± 0.012 (genetic background: wild type).

FGDNSKHKTDKI [BOI2 C-terminal 12 aa]: the protein stability index runs as follows: under setting [1], 0.712 ± 0.042; (genetic background: wild type) 0.685 ± 0.019.

As for FIENVLKKRNMK [LIP5 C-terminal 12 aa], the protein stability index was found to be 0.7195 ± 0.0041 under setting [1] and 0.7 ± 0.041 (genetic background: wild type).

As to FIFYSILPTNVI [YPR123C C-terminal 12 aa], the protein stability index amounted to 0.594 ± 0.013 under setting [1] and 0.645 ± 0.029 (genetic background: wild type).

Turning to FIKKWAHYYKKF [SBE22 C-terminal 12 aa], the protein stability index is, setting by setting: under setting [1], 0.711 ± 0.026; (genetic background: wild type) 0.236 ± 0.0037.

As for FKGFLENIDSYT [AIM22 C-terminal 12 aa], the protein stability index runs as follows: under setting [1], 0.714 ± 0.021; (genetic background: wild type) 0.706 ± 0.0014.

In the case of FKLHNETRCRNR [VPS71 C-terminal 12 aa], the protein stability index under setting [1] turned out to be 0.68 ± 0.017 and the protein stability index (genetic background: wild type) amounted to 0.677 ± 0.007.

In the case of FKVASIANAQVR [ARC1 C-terminal 12 aa], the protein stability index by setting is: under setting [1], 0.689 ± 0.0093; (genetic background: wild type) 0.696 ± 0.027.

As for FLFSCMLYKIDP [YML089C C-terminal 12 aa], the protein stability index by setting is: under setting [1], 0.669 ± 0.027; (genetic background: wild type) 0.664 ± 0.034.

Regarding FLILVFVMKKNH [YDR018C C-terminal 12 aa], the protein stability index stood at 0.287 ± 0.0071 under setting [1] and 0.269 ± 0.017 (genetic background: wild type).

For the sequence FLKNFTNDTFDN [BCH1 C-terminal 12 aa], the protein stability index runs as follows: under setting [1], 0.7055 ± 0.0035; (genetic background: wild type) 0.7462 ± 0.0044.

In turn, FPEKNIVNLKSA [CHA1 C-terminal 12 aa] displayed a protein stability index under setting [1] of 0.6971 ± 0.0067 and a protein stability index (genetic background: wild type) of 0.1495 ± 0.0011.

For the sequence “FPVTLWSKVILK [YHR073W-A C-terminal 12 aa]”, the protein stability index came out at 0.569 ± 0.0092 under setting [1] and 0.559 ± 0.026 (genetic background: wild type).

As to FRHNRSNKKLGC [GEX1 C-terminal 12 aa], the protein stability index came to 0.725 ± 0.025 under setting [1] and 0.7365 ± 0.0018 (genetic background: wild type).

(Values after the supplement of paper PMC10724198.)
